Experiment [1] deals with human LOX-1 expressed on the cell surface (human) (UniProt P78380). Nature of the experiment: flow cytometry, DI-oxLDL on CHO/LOX-1 cells. (A flow cytometer gives signals particle by particle.)
The target is the same in experiment [2]. Nature of the experiment: flow cytometry: DI-oxLDL (0-100 ug/ml) on CHO/LOX-1 cells, 60 min at 4 C, MFI.
Experiment [3] shares this target. Description: flow cytometry: DI-oxLDL (0-100 ug/ml) on CHO/LOX-1 cells, 60 min at 4 C; y axis MFI Signal.
The target of experiment [4] is purified recombinant human LOX1 comprised of the extracellular domain (ECD) of human LOX-1 (amino acids 61-273) with an N-terminal polyhistidine tag (human) (UniProt P78380). Description: AlphaScreen competition on His-LOX-1, unlabelled competitor titrated; labelled ligand biotin-CRP (1 ug/ml) with His-LOX-1 (1 ug/ml) by the panel list of paragraph 265; later sentences of paragraph 265 cite 2B and 2C the other way and the sheet prints no title.

By Kd is commonly meant a measure of binding affinity in units of concentration. High values mean weaker binding, low ones tighter binding. As for Human oxidized LDL, the Kd in experiment [1] and in experiment [2] was 22 µg/mL in each case. This substance also registered a Bmax in experiment [3] of 96.6. Also, the IC50 (read off the curve) in experiment [4] was 0.2 µg/mL.
